# From PMC1150889 (The EMBO Journal, 2005)
# B1: P22 tail accessory (head completion) protein gp4 (natural protein, bacteriophage P22, UniProt P26746 1-166, looked up)
# chain: MQIKTKGDLVRAALRKLGVASDATLTDVEPQSMQDAVDDLEAMMAEWYQDGKGIITGYVFSDDENPPAEGDDHGLRSSAVSAVFHNLACRIAPDYALEATAKIIATAKYGKELLYKQTAISRAKRAPYPSRMPTGSGNSFANLNEWHYFPGEQNADSTTPHDEGNG
# Target: P22 tailspike protein gp9 (bacteriophage P22, UniProt P12528 1-667)
# Assay: cryo-EM structure
binder,measurement,value
B1,binding result,binds
